Laboratory results taken from article PMC4604347, “Local regulation of the Srs2 helicase by the SUMO-like domain protein Esc2 promotes recombination at sites of stalled replication”.

T1: Esc2 200-456 (Saccharomyces cerevisiae, UniProt Q06340 200-456)
T1 sequence: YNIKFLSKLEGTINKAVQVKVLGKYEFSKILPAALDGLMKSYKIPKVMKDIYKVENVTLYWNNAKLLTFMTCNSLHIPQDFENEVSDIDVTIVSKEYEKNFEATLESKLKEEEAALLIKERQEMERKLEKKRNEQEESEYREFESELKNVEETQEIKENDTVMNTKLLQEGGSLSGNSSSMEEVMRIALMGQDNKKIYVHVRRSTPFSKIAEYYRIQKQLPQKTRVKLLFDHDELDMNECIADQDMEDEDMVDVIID

T2: Esc2 (Saccharomyces cerevisiae, UniProt Q06340 1-456)
T2 sequence: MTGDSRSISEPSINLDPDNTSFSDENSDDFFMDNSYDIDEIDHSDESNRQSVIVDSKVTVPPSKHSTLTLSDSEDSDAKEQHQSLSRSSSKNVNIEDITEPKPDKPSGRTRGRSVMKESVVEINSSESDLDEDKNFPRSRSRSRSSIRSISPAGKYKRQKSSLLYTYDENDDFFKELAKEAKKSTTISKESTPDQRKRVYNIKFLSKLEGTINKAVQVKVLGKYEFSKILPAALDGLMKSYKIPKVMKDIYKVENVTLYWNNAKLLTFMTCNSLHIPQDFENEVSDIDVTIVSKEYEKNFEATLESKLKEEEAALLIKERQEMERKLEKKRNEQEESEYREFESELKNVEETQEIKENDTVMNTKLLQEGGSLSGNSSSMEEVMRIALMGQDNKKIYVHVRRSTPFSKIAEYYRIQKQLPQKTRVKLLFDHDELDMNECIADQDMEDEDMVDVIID

T3: Esc2 FF173,174AA (Saccharomyces cerevisiae, UniProt Q06340 1-456, F173A;F174A)
T3 sequence: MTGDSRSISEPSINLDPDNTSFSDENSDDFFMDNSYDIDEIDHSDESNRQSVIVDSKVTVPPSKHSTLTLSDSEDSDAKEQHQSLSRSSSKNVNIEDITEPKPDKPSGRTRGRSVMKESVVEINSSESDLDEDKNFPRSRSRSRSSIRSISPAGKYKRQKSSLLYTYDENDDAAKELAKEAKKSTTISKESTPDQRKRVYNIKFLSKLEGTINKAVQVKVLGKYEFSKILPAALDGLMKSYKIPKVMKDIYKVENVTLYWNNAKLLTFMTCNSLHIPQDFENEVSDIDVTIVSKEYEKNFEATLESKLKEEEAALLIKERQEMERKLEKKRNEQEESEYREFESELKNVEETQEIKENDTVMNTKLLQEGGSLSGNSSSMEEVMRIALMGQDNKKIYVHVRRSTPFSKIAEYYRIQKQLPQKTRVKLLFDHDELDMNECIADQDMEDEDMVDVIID

T4: Esc2 1-151 (Saccharomyces cerevisiae, UniProt Q06340 1-151)
T4 sequence: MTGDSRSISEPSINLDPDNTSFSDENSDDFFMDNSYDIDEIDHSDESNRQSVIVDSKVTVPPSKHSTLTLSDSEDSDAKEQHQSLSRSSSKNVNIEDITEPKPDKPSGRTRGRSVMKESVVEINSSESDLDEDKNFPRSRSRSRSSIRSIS

T5: Esc2 1-199 (Saccharomyces cerevisiae, UniProt Q06340 1-199)
T5 sequence: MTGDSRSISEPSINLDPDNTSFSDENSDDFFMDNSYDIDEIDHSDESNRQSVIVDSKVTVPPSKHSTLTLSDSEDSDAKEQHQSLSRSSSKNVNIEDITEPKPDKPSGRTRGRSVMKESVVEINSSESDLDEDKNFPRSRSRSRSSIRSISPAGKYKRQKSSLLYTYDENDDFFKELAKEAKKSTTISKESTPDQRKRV


Legend:
Esc2 200-456 = molecular target: T1, Esc2 200-456; experiment: EMSA; up to 1000 nM protein; EMSA, 7 nM fluorescein-labeled DNA, 10 min at 37 C; buffer, salt and pH not given in the material; conditions: protein: recombinant; tags: expressed as GST fusion; tag status in assay not explicit; label: 5'-fluorescein on strand 1; fork 1:3 1:4 2:4; three duplex arms
Esc2 = molecular target: T2, Esc2; experiment: EMSA; strong preference; 7 nM DNA; EMSA, 7 nM fluorescein-labeled DNA, 10 min at 37 C; buffer, salt and pH not given in the material; conditions: protein: recombinant, tags: GST tag removed, label: 5'-fluorescein on strand 1
Esc2 FF173,174AA = molecular target: T3, Esc2 FF173,174AA; experiment: EMSA; still proficient, degree only in figure; EMSA, 7 nM fluorescein-labeled DNA, 10 min at 37 C; buffer, salt and pH not given in the material; conditions: protein: recombinant; tags: expressed as GST fusion; tag status in assay not explicit; label: 5'-fluorescein on strand 1; fork 1:3 1:4 2:4; three duplex arms
Esc2 1-151 = molecular target: T4, Esc2 1-151; experiment: EMSA; binding completely lost; up to 1000 nM protein; EMSA, 7 nM fluorescein-labeled DNA, 10 min at 37 C; buffer, salt and pH not given in the material; conditions: protein: recombinant; tags: expressed as GST fusion; tag status in assay not explicit; label: 5'-fluorescein on strand 1; fork 1:3 1:4 2:4; three duplex arms
Esc2 1-199 = molecular target: T5, Esc2 1-199; experiment: EMSA; highly proficient; 7 nM DNA, 0-1000 nM protein; EMSA, 7 nM fluorescein-labeled DNA, 10 min at 37 C; buffer, salt and pH not given in the material; conditions: protein: recombinant; tags: expressed as GST fusion; tag status in assay not explicit; label: 5'-fluorescein on strand 1; fork 1:3 1:4 2:4; three duplex arms

| Binder | binding result (Esc2 200-456) | binding result (Esc2; fork 1:3 1:4 2:4, three duplex arms) | binding result (Esc2 FF173,174AA) | binding result (Esc2 1-151) | binding result (Esc2 1-199) | binding result (Esc2; 3' flap 1:2 1:3, 20 nt ss 3' flap on strand 3) |
| --- | --- | --- | --- | --- | --- | --- |
| Fork (oligos 18, 20, 21, 22) (structured_DNA) DNA 1: AGCTACCATGCCTGCACGAATTAAGCAATTCGTAATCATGGTCATAGCT DNA 2: CTACAGTTCGTCAGGATTCC DNA 3: AATTCGTGCAGGCATGGTAGCT DNA 4: AGCTATGACCATGATTACGAATTGCTTGGAATCCTGACGAACTGTAG | no binding | binds | binds | no binding | binds |  |
| 3'-Flap (oligos 18, 21, 22) (structured_DNA) DNA 1: AGCTACCATGCCTGCACGAATTAAGCAATTCGTAATCATGGTCATAGCT DNA 2: AATTCGTGCAGGCATGGTAGCT DNA 3: AGCTATGACCATGATTACGAATTGCTTGGAATCCTGACGAACTGTAG |  |  |  |  |  | binds |
